According to publication PMC10076222, “From primordial clocks to circadian oscillators” (Nature, 2023):
Values belong to the molecule of their own block, whether it stands above or below them.

Assays:
[1] = target: KaiCRS-Δcoil (KaiCRS truncated at residue Glu490) (Rhodobacter sphaeroides strain KD131/KCTC 12085); test: AUC; sedimentation velocity, 30,000 r.p.m., 20 °C, 295 nm; 100 μM protein, 1 mM ATP (KaiCRS forms: 20 mM MOPS pH 6.5, 50 mM NaCl; KaiCSE: 20 mM MOPS pH 8.0, 150 mM NaCl)
[2] = target: KaiCRS-Δcoil (KaiCRS truncated at residue Glu490) (Rhodobacter sphaeroides strain KD131/KCTC 12085); test: SEC; Superdex-200 10/300 GL, about 40-80 μM protein, 20 mM MOPS pH 6.5, 50 mM NaCl, 2 mM TCEP, 10 mM MgCl2, 1 mM ATP, 4 °C
[3] = target: KaiCRS-Δcoil (KaiCRS truncated at residue Glu490) (Rhodobacter sphaeroides strain KD131/KCTC 12085); test: crystal structure; KaiCRS-Δcoil, sitting drop at 291 K; 200 mM ammonium acetate, 100 mM sodium citrate pH 5.6, 30% PEG 4,000; space group C2221, three monomers in the asymmetric unit, hexamer by PISA
[4] = target: KaiCRS-CI domain (KaiCIRS) (Rhodobacter sphaeroides strain KD131/KCTC 12085); test: SEC; Superdex-200 10/300 GL, about 40-80 μM protein, 20 mM MOPS pH 6.5, 50 mM NaCl, 2 mM TCEP, 10 mM MgCl2, 1 mM ATP, 4 °C
[5] = target: KaiC from Rhodobacter sphaeroides KD131, wild type, full length (KaiCRS) (Rhodobacter sphaeroides strain KD131/KCTC 12085); test: fluorescence polarisation; anisotropy competition, 30 °C: KaiBRS-6IAF (0.2-0.4 μM) with KaiCRS (1 μM), unlabelled KaiBRS 0-50 μM, 20 mM MOPS pH 6.5, 50 mM NaCl, 2 mM TCEP, 10 mM MgCl2, 4 mM ADP; 4 h or 12 h; Kd calculated from IC50
[6] = target: KaiCRS-S413E/S414E (phosphomimetic mutant) (Rhodobacter sphaeroides strain KD131/KCTC 12085); test: as above
[7] = target: KaiCRS-S413E/S414E (phosphomimetic mutant) (Rhodobacter sphaeroides strain KD131/KCTC 12085); test: cryo-EM structure; KaiCRS-S413E/S414E:KaiBRS complex, 20 mM MOPS pH 6.50, 50 mM NaCl, 2 mM TCEP, 10 mM MgCl2, 2 mM ATP; ADP in the CI domain
[8] = target: KaiC from Rhodobacter sphaeroides KD131, wild type, full length (KaiCRS) (Rhodobacter sphaeroides strain KD131/KCTC 12085)
[9] = target: KaiC from Rhodobacter sphaeroides KD131, wild type, full length (KaiCRS) (Rhodobacter sphaeroides strain KD131/KCTC 12085); remark: listed apart in the source
KaiCRS = KaiCRS (Cereibacter sphaeroides, UniProt A0AAX7FLD9, E415S/E416S); test: […] phosphoryl transfer from phosphoserine to ADP, TLC autoradiography; type: biochemical; settings: 4 mM ADP, ATP synthase reaction in CII domain, Ser413, pH 6.5, 30 °C
KaiCRS-Δcoil = target: T1, KaiCRS-Δcoil (Cereibacter sphaeroides, UniProt A0AAX7FLD9, E415S/E416S); test: X-ray crystal structure; type: binding; settings: ADP in all active sites
T1 construct: C-terminal coiled-coil truncated at Glu490 (stop codon introduced at position 490)

[10] = target: His6-MBP-TEV-KaiBRS (KaiBRS-tag) (Rhodobacter sphaeroides strain KD131/KCTC 12085); test: pull-down; as a10 but with 4 mM ATP and an ATP-recycling system instead of ADP
[11] = target: KaiC from Rhodobacter sphaeroides KD131, wild type, full length (KaiCRS) (Rhodobacter sphaeroides strain KD131/KCTC 12085); test: AUC; sedimentation velocity, 30,000 r.p.m., 20 °C, 295 nm; 100 μM protein, 1 mM ATP (KaiCRS forms: 20 mM MOPS pH 6.5, 50 mM NaCl; KaiCSE: 20 mM MOPS pH 8.0, 150 mM NaCl)
[12] = target: KaiC from Rhodobacter sphaeroides KD131, wild type, full length (KaiCRS) (Rhodobacter sphaeroides strain KD131/KCTC 12085); test: crystal structure; KaiCRS, sitting drop at 291 K; protein 10 mg/ml in 20 mM MOPS pH 6.5, 50 mM NaCl, 2 mM TCEP, 5 mM MgCl2, 3 mM ATP, 1 mM AMPPCP; 200 mM MgCl2, 100 mM HEPES pH 7.5, 30% PEG 400
[13] = target: KaiC from Rhodobacter sphaeroides KD131, wild type, full length (KaiCRS) (Rhodobacter sphaeroides strain KD131/KCTC 12085); test: SEC; Superdex-200 10/300 GL, about 40-80 μM protein, 20 mM MOPS pH 6.5, 50 mM NaCl, 2 mM TCEP, 10 mM MgCl2, 1 mM ATP, 4 °C
[14] = target: KaiC from Rhodobacter sphaeroides KD131, wild type, full length (KaiCRS) (Rhodobacter sphaeroides strain KD131/KCTC 12085); test: SEC; Superdex-200 10/300 GL, unphosphorylated KaiCRS (40 μM) bound with ADP, buffer with 0.1 mM ADP instead of ATP, 4 °C
[15] = target: KaiCRS-S413E/S414E (phosphomimetic mutant) (Rhodobacter sphaeroides strain KD131/KCTC 12085); test: cryo-EM structure; KaiCRS-S413E/S414E alone, 4.3 mg/ml in 20 mM MOPS pH 6.50, 50 mM NaCl, 2 mM TCEP, 10 mM MgCl2, 2 mM ATP; hexamers processed with C6, dodecamer with D6 symmetry
[16] = target: the molecule itself; test: AUC; sedimentation velocity, 30,000 r.p.m., 20 °C, 295 nm; 100 μM protein, 1 mM ATP (KaiCRS forms: 20 mM MOPS pH 6.5, 50 mM NaCl; KaiCSE: 20 mM MOPS pH 8.0, 150 mM NaCl)
[17] = target: the molecule itself; test: SEC; Superdex-75 10/300 GL, KaiBRS 0.5 mM, 20 mM MOPS pH 6.5, 50 mM NaCl, 2 mM TCEP, 4 °C

Chain of His6-MBP-TEV-KaiBRS (KaiBRS-tag) (Rhodobacter sphaeroides strain KD131/KCTC 12085) (main, as listed by the source): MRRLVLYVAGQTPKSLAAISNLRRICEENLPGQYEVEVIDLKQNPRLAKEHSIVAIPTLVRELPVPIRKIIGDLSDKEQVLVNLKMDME
Chain of KaiCRS (A0AAX7FLD9 entry or part of it E415S/E416S): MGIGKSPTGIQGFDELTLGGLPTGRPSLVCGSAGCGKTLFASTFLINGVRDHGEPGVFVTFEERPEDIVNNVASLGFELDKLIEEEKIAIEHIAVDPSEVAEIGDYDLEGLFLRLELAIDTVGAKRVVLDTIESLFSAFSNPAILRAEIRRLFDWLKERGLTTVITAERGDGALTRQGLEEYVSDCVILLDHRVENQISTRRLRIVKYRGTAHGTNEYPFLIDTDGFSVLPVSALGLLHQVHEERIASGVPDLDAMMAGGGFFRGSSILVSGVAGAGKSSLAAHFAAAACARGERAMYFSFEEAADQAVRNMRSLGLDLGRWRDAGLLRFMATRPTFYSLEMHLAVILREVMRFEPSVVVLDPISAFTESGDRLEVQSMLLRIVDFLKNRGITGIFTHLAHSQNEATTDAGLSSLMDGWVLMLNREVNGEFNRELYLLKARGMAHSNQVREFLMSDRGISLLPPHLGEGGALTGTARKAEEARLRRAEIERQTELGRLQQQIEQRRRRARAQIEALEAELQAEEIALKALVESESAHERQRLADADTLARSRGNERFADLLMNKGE
T1 sequence (A0AAX7FLD9 entry or part of it E415S/E416S): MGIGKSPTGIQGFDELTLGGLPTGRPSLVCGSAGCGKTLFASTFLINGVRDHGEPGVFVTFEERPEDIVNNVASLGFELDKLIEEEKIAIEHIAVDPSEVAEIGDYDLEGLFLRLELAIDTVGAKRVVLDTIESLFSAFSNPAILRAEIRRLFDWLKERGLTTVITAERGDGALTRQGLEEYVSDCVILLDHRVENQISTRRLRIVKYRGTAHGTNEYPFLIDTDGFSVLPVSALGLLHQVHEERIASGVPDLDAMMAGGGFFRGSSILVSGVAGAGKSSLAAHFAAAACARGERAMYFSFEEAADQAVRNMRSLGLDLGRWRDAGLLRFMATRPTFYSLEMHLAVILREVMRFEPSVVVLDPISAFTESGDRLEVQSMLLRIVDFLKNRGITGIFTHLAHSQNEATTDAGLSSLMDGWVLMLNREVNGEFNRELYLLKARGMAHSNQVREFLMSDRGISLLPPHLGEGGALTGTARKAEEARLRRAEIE

Molecule: KaiCRS-Δcoil (KaiCRS truncated at residue Glu490) (domain or fragment)
stoichiometry N [1]: 6
stoichiometry N [2]: 6
stoichiometry N [3]: 6

Molecule: KaiCRS-CI domain (KaiCIRS) (domain or fragment)
stoichiometry N [4]: 6

Molecule: Nc1ncnc2c1ncn2[C@@H]1O[C@H](COP(=O)(O)OP(=O)(O)O)[C@@H](O)[C@H]1O [ADP]
32P phosphoryl transfer from phosphoserine to ADP, TLC autoradiography (KaiCRS): KaiCRS undergoes dephosphorylation through an ATP synthase mechanism
X-ray crystal structure (KaiCRS-Δcoil): contained three monomers in the asymmetric unit, with ADP present in all active sites

Molecule: KaiC from Rhodobacter sphaeroides KD131, wild type, full length (KaiCRS) (enzyme)
stoichiometry N [11]: 12
stoichiometry N [12]: 12
stoichiometry N [13]: 12
stoichiometry N [14]: 12

Molecule: phosphorylated wild-type KaiCRS (ATP-bound, with ATP-recycling system) (enzyme)
percent co-eluted [10]: < 30%

B1: KaiC from Synechococcus elongatus PCC 7942 (KaiCSE) (enzyme)
chain: MTSAEMTSPNNNSEHQAIAKMRTMIEGFDDISHGGLPIGRSTLVSGTSGTGKTLFSIQFLYNGIIEFDEPGVFVTFEETPQDIIKNARSFGWDLAKLVDEGKLFILDASPDPEGQEVVGGFDLSALIERINYAIQKYRARRVSIDSVTSVFQQYDASSVVRRELFRLVARLKQIGATTVMTTERIEEYGPIARYGVEEFVSDNVVILRNVLEGERRRRTLEILKLRGTSHMKGEYPFTITDHGINIFPLGAMRLTQRSSNVRVSSGVVRLDEMCGGGFFKDSIILATGATGTGKTLLVSRFVENACANKERAILFAYEESRAQLLRNAYSWGMDFEEMERQNLLKIVCAYPESAGLEDHLQIIKSEINDFKPARIAIDSLSALARGVSNNAFRQFVIGVTGYAKQEEITGLFTNTSDQFMGAHSITDSHISTITDTIILLQYVEIRGEMSRAINVFKMRGSWHDKAIREFMISDKGPDIKDSFRNFERIISGSPTRITVDEKSELSRIVRGVQEKGPES
notes: KaiC of Synechococcus elongatus PCC 7942; source: plasmid a gift from E. K. O'Shea
stoichiometry N [16]: 6

B2: KaiB from Synechococcus elongatus PCC 7942 (KaiBSE) (natural protein, UniProt Q79PF5 1-102, looked up)
chain: MSPRKTYILKLYVAGNTPNSVRALKTLKNILEVEFQGVYALKVIDVLKNPQLAEEDKILATPTLAKVLPLPVRRIIGDLSDREKVLIGLDLLYGELQDSDDF
notes: KaiB of Synechococcus elongatus PCC 7942
stoichiometry N [17]: 4

Other lines, results leading:

Kd [5]: 420 nM
Kd [6]: 790 nM
stoichiometry N (KaiBRS per KaiCRS dodecamer) [7]: 12
fold increase in ATPase activity of KaiCRS with KaiBRS at 30 °C [8]: 7.5 fold
ATPase activity of KaiCRS (3.5 μM) with KaiBRS (3.5 μM) in 4 mM ATP, ADP by HPLC, 20-35 °C (with KaiBRS 176, 1052, 1557, 2584; alone 108, 163, 208, 300 day^-1 KaiC^-1) [9]: 2580 ATP/day/KaiC
Molecule: KaiB from Rhodobacter sphaeroides KD131 (KaiBRS), tag cleaved (natural protein)

percent co-eluted [10]: < 30%
Molecule: KaiCRS-S413A/S414A (enzyme)

percent co-eluted [10]: < 30%
stoichiometry N [15]: 12
stoichiometry N [7]: 12
Molecule: KaiCRS-S413E/S414E (phosphomimetic mutant) (enzyme)
